Experimental data from patent US20030105292A1.
Values belong to the molecule of their own block, whether it stands above or below them.

Columns and labels:
Gs protein [1] = target: Gs protein
G protein Gi [2] = target: G protein Gi
G protein Gi [3] = target: G protein Gi; remark: listed apart in the source
Gs protein [4] = target: Gs protein; remark: listed apart in the source

luciferase, CRE-Luc reporter in 293 cells co-transfected with GPR6 at a 1:4 ratio (relative light units) (G protein Gi [2]): 104
Molecule: endogenous human GPR30 (receptor)

luciferase, AP1 reporter assay in 293T cells; Per-Cent Difference of the non-endogenous against the endogenous GPCR (G protein Gq): 61.1%
luciferase, AP1 reporter assay in 293 cells; Per-Cent Difference of the non-endogenous against the endogenous GPCR (G protein Gq): 48.4%
Molecule: non-endogenous human ETBR-LP2 (N358K) (receptor)

luciferase, CREB reporter assay in 293T cells; Per-Cent Difference of the non-endogenous against the endogenous GPCR (Gs protein [4]): 35.6%
luciferase, CREB reporter assay in 293 cells; Per-Cent Difference of the non-endogenous against the endogenous GPCR (Gs protein [4]): 58.9%
B1: non-endogenous human GHSR (V262K) (receptor)
chain: MWNATPSEEPGFNLTLADLDWDASPGNDSLGDELLQLFPAPLLAGVTATCVALFVVGIAGNLLTMLVVSRFRELRTTTNLYLSSMAFSDLLIFLCMPLDLVRLWQYRPWNFGDLLCKLFQFVSESCTYATVLTITALSVERYFAICFPLRAKVVVTKGRVKLVIFVIWAVAFCSAGPIFVLVGVEHENGTDPWDTNECRPTEFAVRSGLLTVMVWVSSIFFFLPVFCLTVLYSLIGRKLWRRRRGDAVVGASLRDQNHKQTKKMLAVVVFAFILCWLPFHVGRYLFSKSFEPGSLEIAQISQYCNLVSFVLFYLSAAINPILYNIMSKKYRVAVFRLLGFEPFSQRKLSTLKDESSRAWTESSINT

More lines, now with the values behind:

Molecule: endogenous, constitutively activated GPR6 (from UniProt P46095) (receptor)
luciferase, CRE-Luc reporter in 293 cells (relative light units) (Gs protein [1]): 104

Molecule: non-endogenous, constitutively active GPR30 (L258K) (receptor)
luciferase, CRE-Luc reporter in 293 cells co-transfected with GPR6; Per-Cent Difference of the non-endogenous against the endogenous GPCR (G protein Gi [3]): 71.6%

Molecule: non-endogenous, constitutively activated GPR17 (V234K) (receptor)
luciferase, 8xCRE-Luc reporter in 293 cells co-transfected with GPR3; Per-Cent Difference of the non-endogenous against the endogenous GPCR (G protein Gi [3]): 74.5%

B2: non-endogenous human APJ (L247K) (receptor)
chain: MEEGGDFDNYYGADNQSECEYTDWKSSGALIPAIYMLVFLLGTTGNGLVLWTVFRSSREKRRSADIFIASLAVADLTFVVTLPLWATYTYRDYDWPFGTFFCKLSSYLIFVNMYASVFCLTGLSFDRYLAIVRPVANARLRLRVSGAVATAVLWVLAALLAMPVMVLRTTGDLENTTKVQCYMDYSMVATVSSEWAWEVGLGVSSTTVGFVVPFTIMLTCYFFIAQTIAGHFRKERIEGLRKRRRLKSIIVVLVVTFALCWMPYHLVKTLYMLGSLLHWPCDFDLFLMNIFPYCTCISYVNSCLNPFLYAFFDPRFRQACTSMLCCGQSRCAGTSHSSSGEKSASYSSGHSQGPGPNMGKGGEQMHEKSIPYSQETLVVD
[35S]GTPgammaS binding to membranes expressing the receptor; Per-Cent Difference of the non-endogenous against the endogenous GPCR (G protein): 49%
